Patent publication US20180155451A1 (published 2018)

T1: FcγRIIa R (human FcγRIIa, allotype R, Arg at position 131), extracellular domain with C-terminal His tag (human, UniProt P12318 34-217)
T1 construct: extracellular domain; expressed in FreeStyle293 cells; analyte in Biacore; also called 2aR; FcgRIIa R
T1 sequence (looked up): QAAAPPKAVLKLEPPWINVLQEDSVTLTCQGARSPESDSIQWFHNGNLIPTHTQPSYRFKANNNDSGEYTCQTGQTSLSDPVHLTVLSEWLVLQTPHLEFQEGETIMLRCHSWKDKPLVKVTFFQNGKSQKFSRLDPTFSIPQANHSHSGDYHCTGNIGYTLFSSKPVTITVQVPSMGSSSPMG

B1: GpH7-B3 variant S337_02A/GpL16-k0 (antibody, human IgG1, kappa)
heavy: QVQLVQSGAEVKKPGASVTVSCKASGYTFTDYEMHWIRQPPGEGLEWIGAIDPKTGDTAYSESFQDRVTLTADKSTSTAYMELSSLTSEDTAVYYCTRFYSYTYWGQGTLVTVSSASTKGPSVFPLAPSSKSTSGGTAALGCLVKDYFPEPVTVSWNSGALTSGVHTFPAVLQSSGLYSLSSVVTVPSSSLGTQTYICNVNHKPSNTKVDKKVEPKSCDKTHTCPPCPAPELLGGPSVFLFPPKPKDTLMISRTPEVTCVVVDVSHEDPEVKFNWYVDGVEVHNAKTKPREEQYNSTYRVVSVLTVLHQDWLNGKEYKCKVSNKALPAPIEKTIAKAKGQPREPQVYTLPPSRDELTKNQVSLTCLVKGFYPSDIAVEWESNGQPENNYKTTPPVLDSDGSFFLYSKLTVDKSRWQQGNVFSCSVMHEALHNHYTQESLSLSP
light: DIVMTQSPLSLPVTPGEPASISCQASESLVHSNRNTYLHWYLQKPGQSPQLLIYKVSNRFSGVPDRFSGSGSGTDFTLKISRVEAEDVGVYYCSQNTHVPPTFGQGTKVEIERTVAAPSVFIFPPSDEQLKSGTASVVCLLNNFYPREAKVQWKVDNALQSGNSQESVTEQDSKDSTYSLSSTLTLSKADYEKHKVYACEVTHQGLSSPVTKSFNRGEC
notes: homodimerized antibody, mutation in both H chains; also called Ho Ab
B2: GpH7-A5/GpH7-B3 variant S337_07I/GpL16-k0 (antibody, human IgG1, kappa)
heavy 1: not shown
heavy 2: not shown
light: DIVMTQSPLSLPVTPGEPASISCQASESLVHSNRNTYLHWYLQKPGQSPQLLIYKVSNRFSGVPDRFSGSGSGTDFTLKISRVEAEDVGVYYCSQNTHVPPTFGQGTKVEIERTVAAPSVFIFPPSDEQLKSGTASVVCLLNNFYPREAKVQWKVDNALQSGNSQESVTEQDSKDSTYSLSSTLTLSKADYEKHKVYACEVTHQGLSSPVTKSFNRGEC
notes: heterodimerized, mutation in one H chain only; also called He Ab
B3: GpH7-A5/GpH7-B3 variant S267_09D/GpL16-k0 (antibody, human IgG1, kappa)
heavy 1: not shown
heavy 2: not shown
light: DIVMTQSPLSLPVTPGEPASISCQASESLVHSNRNTYLHWYLQKPGQSPQLLIYKVSNRFSGVPDRFSGSGSGTDFTLKISRVEAEDVGVYYCSQNTHVPPTFGQGTKVEIERTVAAPSVFIFPPSDEQLKSGTASVVCLLNNFYPREAKVQWKVDNALQSGNSQESVTEQDSKDSTYSLSSTLTLSKADYEKHKVYACEVTHQGLSSPVTKSFNRGEC
notes: as for B2
B4: GpH7-A5/GpH7-B3 variant S267_10E/GpL16-k0 (antibody, human IgG1, kappa)
heavy 1: not shown
heavy 2: not shown
light: DIVMTQSPLSLPVTPGEPASISCQASESLVHSNRNTYLHWYLQKPGQSPQLLIYKVSNRFSGVPDRFSGSGSGTDFTLKISRVEAEDVGVYYCSQNTHVPPTFGQGTKVEIERTVAAPSVFIFPPSDEQLKSGTASVVCLLNNFYPREAKVQWKVDNALQSGNSQESVTEQDSKDSTYSLSSTLTLSKADYEKHKVYACEVTHQGLSSPVTKSFNRGEC
notes: as for B2
B5: GpH7-B3 variant P238_20W/GpL16-k0 (antibody, human IgG1, kappa)
heavy: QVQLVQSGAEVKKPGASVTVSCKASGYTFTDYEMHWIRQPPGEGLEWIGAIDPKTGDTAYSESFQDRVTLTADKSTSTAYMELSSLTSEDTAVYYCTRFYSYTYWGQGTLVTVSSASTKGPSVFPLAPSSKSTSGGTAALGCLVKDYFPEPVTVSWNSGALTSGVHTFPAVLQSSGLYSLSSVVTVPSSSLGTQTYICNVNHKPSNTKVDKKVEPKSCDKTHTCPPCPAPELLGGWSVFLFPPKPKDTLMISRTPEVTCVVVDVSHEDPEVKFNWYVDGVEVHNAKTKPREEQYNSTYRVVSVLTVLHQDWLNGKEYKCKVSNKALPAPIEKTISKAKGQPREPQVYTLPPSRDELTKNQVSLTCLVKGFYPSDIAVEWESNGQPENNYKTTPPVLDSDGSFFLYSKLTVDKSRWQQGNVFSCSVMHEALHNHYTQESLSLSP
light: DIVMTQSPLSLPVTPGEPASISCQASESLVHSNRNTYLHWYLQKPGQSPQLLIYKVSNRFSGVPDRFSGSGSGTDFTLKISRVEAEDVGVYYCSQNTHVPPTFGQGTKVEIERTVAAPSVFIFPPSDEQLKSGTASVVCLLNNFYPREAKVQWKVDNALQSGNSQESVTEQDSKDSTYSLSSTLTLSKADYEKHKVYACEVTHQGLSSPVTKSFNRGEC
notes: as for B1
B6: GpH7-B3 variant P238_10E/GpL16-k0 (antibody, human IgG1, kappa)
heavy: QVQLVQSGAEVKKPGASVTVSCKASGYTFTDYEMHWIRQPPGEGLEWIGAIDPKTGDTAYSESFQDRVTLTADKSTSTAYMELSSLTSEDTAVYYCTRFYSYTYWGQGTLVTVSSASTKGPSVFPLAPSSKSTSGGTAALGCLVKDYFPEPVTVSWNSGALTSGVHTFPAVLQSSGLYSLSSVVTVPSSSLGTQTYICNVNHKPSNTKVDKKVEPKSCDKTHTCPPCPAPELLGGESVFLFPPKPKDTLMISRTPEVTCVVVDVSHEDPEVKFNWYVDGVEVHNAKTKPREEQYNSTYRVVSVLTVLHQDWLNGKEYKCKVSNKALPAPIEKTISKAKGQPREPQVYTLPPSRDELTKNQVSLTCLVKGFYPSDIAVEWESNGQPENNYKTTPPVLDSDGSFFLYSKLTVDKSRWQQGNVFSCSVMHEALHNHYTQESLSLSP
light: DIVMTQSPLSLPVTPGEPASISCQASESLVHSNRNTYLHWYLQKPGQSPQLLIYKVSNRFSGVPDRFSGSGSGTDFTLKISRVEAEDVGVYYCSQNTHVPPTFGQGTKVEIERTVAAPSVFIFPPSDEQLKSGTASVVCLLNNFYPREAKVQWKVDNALQSGNSQESVTEQDSKDSTYSLSSTLTLSKADYEKHKVYACEVTHQGLSSPVTKSFNRGEC
notes: as for B1
B7: GpH7-B3 variant P238_15Y/GpL16-k0 (antibody, human IgG1, kappa)
heavy: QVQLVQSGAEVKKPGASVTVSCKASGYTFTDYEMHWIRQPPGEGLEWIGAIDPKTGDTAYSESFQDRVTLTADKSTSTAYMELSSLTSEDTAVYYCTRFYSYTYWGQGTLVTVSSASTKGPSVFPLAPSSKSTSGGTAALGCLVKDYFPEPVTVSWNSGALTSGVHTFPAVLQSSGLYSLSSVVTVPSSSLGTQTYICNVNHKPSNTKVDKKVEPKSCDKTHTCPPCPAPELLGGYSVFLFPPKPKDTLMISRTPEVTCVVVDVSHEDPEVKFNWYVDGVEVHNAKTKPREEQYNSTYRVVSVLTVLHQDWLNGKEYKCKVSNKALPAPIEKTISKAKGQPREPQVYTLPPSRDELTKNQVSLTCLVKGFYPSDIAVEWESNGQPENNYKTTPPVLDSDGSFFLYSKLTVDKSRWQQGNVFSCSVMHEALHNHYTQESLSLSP
light: DIVMTQSPLSLPVTPGEPASISCQASESLVHSNRNTYLHWYLQKPGQSPQLLIYKVSNRFSGVPDRFSGSGSGTDFTLKISRVEAEDVGVYYCSQNTHVPPTFGQGTKVEIERTVAAPSVFIFPPSDEQLKSGTASVVCLLNNFYPREAKVQWKVDNALQSGNSQESVTEQDSKDSTYSLSSTLTLSKADYEKHKVYACEVTHQGLSSPVTKSFNRGEC
notes: as for B1
B8: GpH7-B3 variant P238_16H/GpL16-k0 (antibody, human IgG1, kappa)
heavy: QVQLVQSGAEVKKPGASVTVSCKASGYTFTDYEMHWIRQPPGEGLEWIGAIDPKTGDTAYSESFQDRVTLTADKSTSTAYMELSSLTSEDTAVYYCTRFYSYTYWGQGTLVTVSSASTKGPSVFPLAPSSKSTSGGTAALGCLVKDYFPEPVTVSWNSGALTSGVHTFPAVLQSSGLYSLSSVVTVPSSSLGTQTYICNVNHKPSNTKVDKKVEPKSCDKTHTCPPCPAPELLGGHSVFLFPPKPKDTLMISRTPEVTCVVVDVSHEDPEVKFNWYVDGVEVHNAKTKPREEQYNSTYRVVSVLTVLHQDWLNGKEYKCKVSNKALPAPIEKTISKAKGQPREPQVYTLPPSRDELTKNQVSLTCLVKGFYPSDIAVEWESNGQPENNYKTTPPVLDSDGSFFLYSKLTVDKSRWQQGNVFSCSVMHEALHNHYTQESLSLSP
light: DIVMTQSPLSLPVTPGEPASISCQASESLVHSNRNTYLHWYLQKPGQSPQLLIYKVSNRFSGVPDRFSGSGSGTDFTLKISRVEAEDVGVYYCSQNTHVPPTFGQGTKVEIERTVAAPSVFIFPPSDEQLKSGTASVVCLLNNFYPREAKVQWKVDNALQSGNSQESVTEQDSKDSTYSLSSTLTLSKADYEKHKVYACEVTHQGLSSPVTKSFNRGEC
notes: as for B1
B9: GpH7-B3 variant P238_19Q/GpL16-k0 (antibody, human IgG1, kappa)
heavy: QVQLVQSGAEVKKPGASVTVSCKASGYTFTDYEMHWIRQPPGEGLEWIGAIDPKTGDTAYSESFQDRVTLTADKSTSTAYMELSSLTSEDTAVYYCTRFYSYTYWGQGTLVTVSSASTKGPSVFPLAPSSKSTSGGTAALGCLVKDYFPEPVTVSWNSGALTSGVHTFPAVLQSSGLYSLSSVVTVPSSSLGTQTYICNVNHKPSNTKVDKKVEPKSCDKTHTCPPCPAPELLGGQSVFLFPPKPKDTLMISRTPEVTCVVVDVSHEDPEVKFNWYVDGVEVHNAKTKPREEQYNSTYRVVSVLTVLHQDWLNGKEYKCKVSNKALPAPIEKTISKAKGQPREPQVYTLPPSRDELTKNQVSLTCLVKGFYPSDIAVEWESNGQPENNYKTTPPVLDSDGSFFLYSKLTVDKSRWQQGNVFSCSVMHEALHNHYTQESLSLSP
light: DIVMTQSPLSLPVTPGEPASISCQASESLVHSNRNTYLHWYLQKPGQSPQLLIYKVSNRFSGVPDRFSGSGSGTDFTLKISRVEAEDVGVYYCSQNTHVPPTFGQGTKVEIERTVAAPSVFIFPPSDEQLKSGTASVVCLLNNFYPREAKVQWKVDNALQSGNSQESVTEQDSKDSTYSLSSTLTLSKADYEKHKVYACEVTHQGLSSPVTKSFNRGEC
notes: as for B1

Tests used:
[1] = biological target: T1, FcγRIIa R (human FcγRIIa, allotype R, …); experiment: SPR (Biacore), relative binding vs GpH7-B3/GpL16-k0
Experimental: Analysis of interaction between objective antibody and the FcγR was carried out using Biacore T100 (GE Healthcare). HBS-EP+ (GE Healthcare) was used as the running buffer, and the measurement temperature was set to 25° C. Chips produced by immobilizing the antigen peptide by the amine coupling method to a Series S Sencor Chip CM5 (GE Healthcare), or alternatively, chips produced by allowing preliminarily biotinylated antigen peptides to interact with and immobilize onto a Series S Sensor Chip SA (certified) (GE Healthcare) were used. Antibodies of interest were captured onto an antigen peptide-immobilized chip, and allowed to interact to each FcγR diluted with running buffer. To regenerate and repeatedly use the chip, the antibodies captured on the chip were washed off by reacting 10 mM glycine-HCl, pH 1.5.
The FcγR-binding activity of each antibody was assessed primarily using as an indicator the FcγR-binding activity and dissociation constant for FcγR.

[2] = biological target: FcγRIIa H (human FcγRIIa, allotype with His at position 131), extracellular domain with C-terminal His tag (human, UniProt P12318 34-217); experiment: SPR (Biacore), antibody captured on antigen peptide chip, FcγR as analyte; relative to HeCon Ab GpH7-A5/GpH7-B3/GpL16-k0 = 100

Binder | Ho/Con_2aR [1] | He/Con_2aH [2]
B1 | 102 relative, control = 100 | 
B2 |  | 101 control = 100
B3 |  | 105 control = 100
B4 |  | 102 control = 100
B5 | 25.7 relative, control = 100 | 
B6 | 21.4 relative, control = 100 | 
B7 | 95.9 relative, control = 100 | 
B8 | 25.5 relative, control = 100 | 
B9 | 19.4 relative, control = 100 | 
